Consider five molecules from patent publication US20230272029A1, “CO-AGONISTS AT GLP-1 AND GIP RECEPTORS SUITABLE FOR ORAL DELIVERY” (Novo Nordisk A/S, priority 2020, published 2023).

Starred links: 1 amine or outer side, 2 acyl side, 3 side chain; linkers in the order of their positions; H or OH if unused. Non-standard residues stand in square brackets, D forms with d. Groups on a side chain read outwards from the residue. No end group written: not given here. *: point of attachment. C18 diacid = O=C(O)CCCCCCCCCCCCCCCCC(=O)*; γGlu = O=C(O)[C@H](CCC(=O)[*:2])N[*:1]; εLys = N[C@@H](CCCCN[*:1])C(=O)[*:2]; AEEA = NCCOCCOCC(=O)O; Aib = CC(C)(N)C(=O)O

The target in test [1] is T1, human GIP receptor (human, UniProt P48546 22-466).
T1 sequence (looked up): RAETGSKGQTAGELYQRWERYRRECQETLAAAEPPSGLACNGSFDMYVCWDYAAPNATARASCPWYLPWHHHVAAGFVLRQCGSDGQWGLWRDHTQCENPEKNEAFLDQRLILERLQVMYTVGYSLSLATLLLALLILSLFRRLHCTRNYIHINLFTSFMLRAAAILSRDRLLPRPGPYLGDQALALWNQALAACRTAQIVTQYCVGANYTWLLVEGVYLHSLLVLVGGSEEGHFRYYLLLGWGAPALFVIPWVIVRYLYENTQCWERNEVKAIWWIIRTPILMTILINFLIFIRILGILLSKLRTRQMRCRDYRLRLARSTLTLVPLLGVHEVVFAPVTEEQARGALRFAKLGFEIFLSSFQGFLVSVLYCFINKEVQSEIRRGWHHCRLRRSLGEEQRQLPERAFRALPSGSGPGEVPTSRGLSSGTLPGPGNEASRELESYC
As to the kind of experiment: cell-based or functional assay.

The target of test [2] is human GLP-1 receptor (human, UniProt P43220 24-463). Briefly: cell-based or functional assay.

B1: Compound No. 5 (peptide)
peptide: Y[Aib]EGTFTSDYSYYLEK([εLys-εLys-γGlu-C18 diacid])QAAQAFVNWLLAGGPSSGAPPPS-OH
modifications: N-terminus assumed
SMILES: CC(C)C[C@H](NC(=O)[C@H](CC(C)C)NC(=O)[C@H](Cc1c[nH]c2ccccc12)NC(=O)[C@H](CC(N)=O)NC(=O)[C@@H](NC(=O)[C@H](Cc1ccccc1)NC(=O)[C@H](C)NC(=O)[C@H](CCC(N)=O)NC(=O)[C@H](C)NC(=O)[C@H](C)NC(=O)[C@H](CCC(N)=O)NC(=O)[C@H](CCCCNC(=O)[C@@H](N)CCCCNC(=O)[C@@H](N)CCCCNC(=O)CC[C@H](NC(=O)CCCCCCCCCCCCCCCCC(=O)O)C(=O)O)NC(=O)[C@H](CCC(=O)O)NC(=O)[C@H](CC(C)C)NC(=O)[C@H](Cc1ccc(O)cc1)NC(=O)[C@H](Cc1ccc(O)cc1)NC(=O)[C@H](CO)NC(=O)[C@H](Cc1ccc(O)cc1)NC(=O)[C@H](CC(=O)O)NC(=O)[C@H](CO)NC(=O)[C@@H](NC(=O)[C@H](Cc1ccccc1)NC(=O)[C@@H](NC(=O)CNC(=O)[C@H](CCC(=O)O)NC(=O)C(C)(C)NC(=O)[C@@H](N)Cc1ccc(O)cc1)[C@@H](C)O)[C@@H](C)O)C(C)C)C(=O)N[C@@H](C)C(=O)NCC(=O)NCC(=O)N1CCC[C@H]1C(=O)N[C@@H](CO)C(=O)N[C@@H](CO)C(=O)NCC(=O)N[C@@H](C)C(=O)N1CCC[C@H]1C(=O)N1CCC[C@H]1C(=O)N1CCC[C@H]1C(=O)N[C@@H](CO)C(=O)O
For B1, in test [1], the “hGIPR, CRE Luc 0% HSA EC50 (pM)” value came out at 14.2 pM and the “hGIPR, CRE Luc 1% HSA EC50 (pM)” value is 362 pM. In test [2], the “hGLP-1R, CRE Luc 0% HSA EC50 (pM)” value was found to be 9.4 pM and the “hGLP-1R, CRE Luc 1% HSA EC50 (pM)” value came out at 625 pM.

B2: Compound No. 10 (peptide)
peptide: Y[Aib]EGTFTSDYSIYLEK([AEEA-AEEA-γGlu-C18 diacid])QAAREFIEWLLAGGPSSGAPPPS-OH
modifications: N-terminus assumed
SMILES: CC[C@H](C)[C@H](NC(=O)[C@H](Cc1ccccc1)NC(=O)[C@H](CCC(=O)O)NC(=O)[C@H](CCCNC(=N)N)NC(=O)[C@H](C)NC(=O)[C@H](C)NC(=O)[C@H](CCC(N)=O)NC(=O)[C@H](CCCCNC(=O)COCCOCCNC(=O)COCCOCCNC(=O)CC[C@H](NC(=O)CCCCCCCCCCCCCCCCC(=O)O)C(=O)O)NC(=O)[C@H](CCC(=O)O)NC(=O)[C@H](CC(C)C)NC(=O)[C@H](Cc1ccc(O)cc1)NC(=O)[C@@H](NC(=O)[C@H](CO)NC(=O)[C@H](Cc1ccc(O)cc1)NC(=O)[C@H](CC(=O)O)NC(=O)[C@H](CO)NC(=O)[C@@H](NC(=O)[C@H](Cc1ccccc1)NC(=O)[C@@H](NC(=O)CNC(=O)[C@H](CCC(=O)O)NC(=O)C(C)(C)NC(=O)[C@@H](N)Cc1ccc(O)cc1)[C@@H](C)O)[C@@H](C)O)[C@@H](C)CC)C(=O)N[C@@H](CCC(=O)O)C(=O)N[C@@H](Cc1c[nH]c2ccccc12)C(=O)N[C@@H](CC(C)C)C(=O)N[C@@H](CC(C)C)C(=O)N[C@@H](C)C(=O)NCC(=O)NCC(=O)N1CCC[C@H]1C(=O)N[C@@H](CO)C(=O)N[C@@H](CO)C(=O)NCC(=O)N[C@@H](C)C(=O)N1CCC[C@H]1C(=O)N1CCC[C@H]1C(=O)N1CCC[C@H]1C(=O)N[C@@H](CO)C(=O)O
Consider B2, for which the “hGIPR, CRE Luc 1% HSA EC50 (pM)” value in test [1] amounted to 1750 pM. In addition, in test [2], the “hGLP-1R, CRE Luc 0% HSA EC50 (pM)” value came out at 3.9 pM and the “hGLP-1R, CRE Luc 1% HSA EC50 (pM)” value amounted to 940 pM.

B3: Compound No. 7 (peptide)
peptide: Y[Aib]EGTFTSDYSIYLEK([AEEA-AEEA-γGlu-C18 diacid])QAAREFVNWLLAGGPSSGAPPPS-NH2
modifications: N-terminus assumed
SMILES: CC[C@H](C)[C@H](NC(=O)[C@H](CO)NC(=O)[C@H](Cc1ccc(O)cc1)NC(=O)[C@H](CC(=O)O)NC(=O)[C@H](CO)NC(=O)[C@@H](NC(=O)[C@H](Cc1ccccc1)NC(=O)[C@@H](NC(=O)CNC(=O)[C@H](CCC(=O)O)NC(=O)C(C)(C)NC(=O)[C@@H](N)Cc1ccc(O)cc1)[C@@H](C)O)[C@@H](C)O)C(=O)N[C@@H](Cc1ccc(O)cc1)C(=O)N[C@@H](CC(C)C)C(=O)N[C@@H](CCC(=O)O)C(=O)N[C@@H](CCCCNC(=O)COCCOCCNC(=O)COCCOCCNC(=O)CC[C@H](NC(=O)CCCCCCCCCCCCCCCCC(=O)O)C(=O)O)C(=O)N[C@@H](CCC(N)=O)C(=O)N[C@@H](C)C(=O)N[C@@H](C)C(=O)N[C@@H](CCCNC(=N)N)C(=O)N[C@@H](CCC(=O)O)C(=O)N[C@@H](Cc1ccccc1)C(=O)N[C@H](C(=O)N[C@@H](CC(N)=O)C(=O)N[C@@H](Cc1c[nH]c2ccccc12)C(=O)N[C@@H](CC(C)C)C(=O)N[C@@H](CC(C)C)C(=O)N[C@@H](C)C(=O)NCC(=O)NCC(=O)N1CCC[C@H]1C(=O)N[C@@H](CO)C(=O)N[C@@H](CO)C(=O)NCC(=O)N[C@@H](C)C(=O)N1CCC[C@H]1C(=O)N1CCC[C@H]1C(=O)N1CCC[C@H]1C(=O)N[C@@H](CO)C(N)=O)C(C)C
For the molecule B3, in test [1], the “hGIPR, CRE Luc 0% HSA EC50 (pM)” value came out at 28.7 pM and the “hGIPR, CRE Luc 1% HSA EC50 (pM)” value amounted to 687 pM. In test [2], the “hGLP-1R, CRE Luc 0% HSA EC50 (pM)” value is 4.2 pM and the “hGLP-1R, CRE Luc 1% HSA EC50 (pM)” value is 513 pM.

B4: Compound No. 8 (peptide)
peptide: Y[Aib]EGTFTSDYSIYLEK([εLys-εLys-γGlu-C18 diacid])QAAREFINWLLAGGPSSGAPPPS-NH2
modifications: N-terminus assumed
SMILES: CC[C@H](C)[C@H](NC(=O)[C@H](Cc1ccccc1)NC(=O)[C@H](CCC(=O)O)NC(=O)[C@H](CCCNC(=N)N)NC(=O)[C@H](C)NC(=O)[C@H](C)NC(=O)[C@H](CCC(N)=O)NC(=O)[C@H](CCCCNC(=O)[C@@H](N)CCCCNC(=O)[C@@H](N)CCCCNC(=O)CC[C@H](NC(=O)CCCCCCCCCCCCCCCCC(=O)O)C(=O)O)NC(=O)[C@H](CCC(=O)O)NC(=O)[C@H](CC(C)C)NC(=O)[C@H](Cc1ccc(O)cc1)NC(=O)[C@@H](NC(=O)[C@H](CO)NC(=O)[C@H](Cc1ccc(O)cc1)NC(=O)[C@H](CC(=O)O)NC(=O)[C@H](CO)NC(=O)[C@@H](NC(=O)[C@H](Cc1ccccc1)NC(=O)[C@@H](NC(=O)CNC(=O)[C@H](CCC(=O)O)NC(=O)C(C)(C)NC(=O)[C@@H](N)Cc1ccc(O)cc1)[C@@H](C)O)[C@@H](C)O)[C@@H](C)CC)C(=O)N[C@@H](CC(N)=O)C(=O)N[C@@H](Cc1c[nH]c2ccccc12)C(=O)N[C@@H](CC(C)C)C(=O)N[C@@H](CC(C)C)C(=O)N[C@@H](C)C(=O)NCC(=O)NCC(=O)N1CCC[C@H]1C(=O)N[C@@H](CO)C(=O)N[C@@H](CO)C(=O)NCC(=O)N[C@@H](C)C(=O)N1CCC[C@H]1C(=O)N1CCC[C@H]1C(=O)N1CCC[C@H]1C(=O)N[C@@H](CO)C(N)=O
Turning to B4, in test [1], the “hGIPR, CRE Luc 0% HSA EC50 (pM)” value came out at 6.7 pM and the “hGIPR, CRE Luc 1% HSA EC50 (pM)” value was 191 pM. In addition, in test [2], the “hGLP-1R, CRE Luc 0% HSA EC50 (pM)” value stood at 2.3 pM and the “hGLP-1R, CRE Luc 1% HSA EC50 (pM)” value came out at 82.1 pM.

B5: Compound No. 6 (peptide)
peptide: Y[Aib]EGTFTSDYSIYLEK([εLys-εLys-γGlu-C18 diacid])QAAREFVNWLLAGGPSSGAPPPS-NH2
modifications: N-terminus assumed
SMILES: CC[C@H](C)[C@H](NC(=O)[C@H](CO)NC(=O)[C@H](Cc1ccc(O)cc1)NC(=O)[C@H](CC(=O)O)NC(=O)[C@H](CO)NC(=O)[C@@H](NC(=O)[C@H](Cc1ccccc1)NC(=O)[C@@H](NC(=O)CNC(=O)[C@H](CCC(=O)O)NC(=O)C(C)(C)NC(=O)[C@@H](N)Cc1ccc(O)cc1)[C@@H](C)O)[C@@H](C)O)C(=O)N[C@@H](Cc1ccc(O)cc1)C(=O)N[C@@H](CC(C)C)C(=O)N[C@@H](CCC(=O)O)C(=O)N[C@@H](CCCCNC(=O)[C@@H](N)CCCCNC(=O)[C@@H](N)CCCCNC(=O)CC[C@H](NC(=O)CCCCCCCCCCCCCCCCC(=O)O)C(=O)O)C(=O)N[C@@H](CCC(N)=O)C(=O)N[C@@H](C)C(=O)N[C@@H](C)C(=O)N[C@@H](CCCNC(=N)N)C(=O)N[C@@H](CCC(=O)O)C(=O)N[C@@H](Cc1ccccc1)C(=O)N[C@H](C(=O)N[C@@H](CC(N)=O)C(=O)N[C@@H](Cc1c[nH]c2ccccc12)C(=O)N[C@@H](CC(C)C)C(=O)N[C@@H](CC(C)C)C(=O)N[C@@H](C)C(=O)NCC(=O)NCC(=O)N1CCC[C@H]1C(=O)N[C@@H](CO)C(=O)N[C@@H](CO)C(=O)NCC(=O)N[C@@H](C)C(=O)N1CCC[C@H]1C(=O)N1CCC[C@H]1C(=O)N1CCC[C@H]1C(=O)N[C@@H](CO)C(N)=O)C(C)C
Turning to B5, in test [1], the “hGIPR, CRE Luc 0% HSA EC50 (pM)” value is 18.5 pM and the “hGIPR, CRE Luc 1% HSA EC50 (pM)” value is 434 pM. Moreover, in test [2], the “hGLP-1R, CRE Luc 0% HSA EC50 (pM)” value turned out to be 3.4 pM and the “hGLP-1R, CRE Luc 1% HSA EC50 (pM)” value was determined as 243 pM.
